Blank lines part the entries; values can stand above or below the compound they belong to.
Assays:
[1] = physchem; conditions: pH 7.4
[2] = Plasma pharmacokinetics of EC0565 after a single intravenous or subcutaneous dose; conditions: for Tmax: sc
Method: The bioavailability of EC0565 after subcutaneous injection was measured. Female Lewis rats with rounded tip jugular vein catheters (Harlan) were fed regular rodent diet. The treated animals were given a single intravenous or subcutaneous dose of EC0565 at 2 μmmol/kg. […] For subcutaneous administration FIG. 18b, whole blood samples (300 μl) were collected from the animals at 1 min, 10 min, 30 min, 1 h, 2 h, 3 h, 4 h, 8 h, and 12 h post injection. The blood samples were placed into anti-coagulant tubes containing 1.7 mg/mL of K3-EDTA and 0.35 mg/mL of N-maleoyl-beta-alanine (0.35 mg/mL). Plasma samples were obtained by centrifugation for 3 min at ˜2,000 g and stored at −80° C. The amount of EC0565 and its released base drug (everolimus) were determined by HPLC using the EC0565 injection solution as the standard.

[3] = system: Proliferating Cell Nuclear Antigen (PCNA); assay: Western blot of PCNA in synchronized RAW264.7 cells; type: cell-based, murine; conditions: 1-1000 nM; EC0565 2 h treatment, 48-h chase; everolimus 48 h
Method: To study anti-proliferative effect of EC0565, FR-positive murine macrophage-like RAW264.7 cells (serum deprived for 36 h for synchonization) were given a 2 h treatment of EC0565 (1, 10, 100, and 1000 nM) without or with 1000× excess of EC17 (as a folate competitor) followed by a 48-h chase in drug-free medium. For comparison, the cells were also treated for 48 h with everolimus (1, 10, 100, and 1000 nM). […] Western blot analysis was carried out on whole cell lysates using a monoclonal antibody specific for PCNA (PC10, Cell Signaling, Danvers, Mass.). After incubation with a peroxidase-conjugated secondary antibody, the signals were visualized using SuperSignal West Pico Chemiluminescent Substrate system (ThermoScientific, Waltham, Mass.) following the manufacturer's instructions. The images were acquired using a G:BOX Chemi HR 16 gel imaging system (Syngene, Frederick, Md.).

[4] = cited from earlier work
[5] = rats; cited from earlier work
[6] = female, Lewis, rat, in vivo, 2 μmmol/kg

Structure (SMILES): CO[C@H]1C[C@@H]2CC[C@@H](C)[C@@](O)(O2)C(=O)C(=O)N2CCCC[C@H]2C(=O)O[C@H]([C@H](C)C[C@@H]2CC[C@@H](OCCOC(=O)OCCSSC[C@H](NC(=O)[C@H](CCC(=O)NC[C@H](O)[C@@H](O)[C@H](O)[C@H](O)CO)NC(=O)[C@H](CCC(=O)O)NC(=O)[C@H](CCC(=O)NC[C@H](O)[C@@H](O)[C@H](O)[C@H](O)CO)NC(=O)[C@H](CCC(=O)O)NC(=O)[C@H](CCC(=O)NC[C@H](O)[C@@H](O)[C@H](O)[C@H](O)CO)NC(=O)CC[C@H](NC(=O)c3ccc(NCc4cnc5nc(N)[nH]c(=O)c5n4)cc3)C(=O)O)C(=O)O)[C@H](OC)C2)CC(=O)[C@H](C)/C=C(\C)[C@@H](O)[C@@H](OC)C(=O)[C@H](C)C[C@H](C)/C=C/C=C/C=C/1C [EC0565]
solubility [1]: > 1000 µM | bioavailability [2, 6]: ~128% | Tmax [2, 6]: ~1 h | free drug (everolimus) exposure/release in plasma, based on AUC ([2]; single intravenous dose of EC0565 at 2 μmmol/kg): approximately 18% | free drug (everolimus) exposure/release in plasma, based on AUC ([2]; single subcutaneous dose of EC0565 at 2 μmmol/kg): ~17%

Tmax ([2]; female, Lewis, rat, in vivo): ~1 h
Structure (SMILES): CO[C@H]1C[C@@H]2CC[C@@H](C)[C@@](O)(O2)C(=O)C(=O)N2CCCC[C@H]2C(=O)O[C@H]([C@H](C)C[C@@H]2CC[C@@H](OCCO)[C@H](OC)C2)CC(=O)[C@H](C)/C=C(\C)[C@@H](O)[C@@H](OC)C(=O)[C@H](C)C[C@H](C)/C=C/C=C/C=C/1C [everolimus]
effect on PCNA activities [3]: inhibited PCNA activities | water solubility [4]: 1 to 10 µM | oral bioavailability [5]: ~12%
